B1: IL18R_VHHα2β17 (antibody, V domains shown)
V domain 1: DVQLQESGGGLVQAGGSLRLSCAASGFTLLDSYDIGWFRQAPGKKREEVSCISSSGGKSTYYADSVKGRFTISRDNANNTVYLQMNSLKPEDTAVYYCAADGAEGFWSCQSGGYDYWGQGTQVTVSS
V domain 2: DVPLQESGGGLVQAGGSLRLSCVASGFALDEIAVGWFRQAPGKEREGLSCISSSDGSTLYADSVKGRFTISSDNAKNTVYLQMNSLKPEDTAVYLCAAVRGSCFGRTTHWGQGTQVTVSS
B2: IL18R_tanVHHβ15α2 (antibody, V domains shown)
V domain 1: DVQLQESGGGLVQPGGSLRLSCAASGRFFTINAMGWYRQTPGKQRELVAAITSDGSTTYQDSVKGRFTISRDNANRTANLYMNSLKSEDTAVYYCNADGRFNDNGYVKNFNIWGQGTQVTVSS
V domain 2: B1 V domain 1
B3: IL18R_VHHα2β15 (antibody, V domains shown)
V domain 1: B1 V domain 1
V domain 2: B2 V domain 1

Target: IL-18BP (human)
Experiment: BLI

Binding result, no binding:
B1, B2, B3

— patent US20260347486 (published 2026)
